According to patent US8357833B2, “Corn plants and seed enhanced for asparagine and protein” (priority 2007, dated 2013):

Substrate: N[C@@H](CC(=O)O)C(=O)O
Assay: Kinetics of recombinant his-tagged, refolded maize asparagine synthetase AsnS4 (substrate titration, asparagine by HPLC)
Type: biochemical, Zea mays
Details: other: Zm AsnS4, 100 mM Hepes, pH 8.0, 10 mM MgCl2
Procedure: To assay asparagine synthetase activity, desalted protein extracts (10-50 μL) were added to wells containing 100 μL assay solution (100 mM Hepes, pH 8.0, 10 mM MgCl2, 2 mM aspartate, 5 mM DTT, 10 mM ATP, 1 mM amino(oxy)acetic acid (aspartate amino transferase inhibitor), 1 mM aspartic semialdehyde (asparaginase inhibitor). To start the reaction, glutamine (final concentration of 2 mM for standard assay) was added to the solution, which was then mixed. The assay mixture was then incubated for 1 to 2 hours. The reaction was then stopped by the addition of an equal volume of 20% (w/v) trichloroacetic acid. The mixture was then filtered to remove precipitate and asparagine was measured by HPLC. Sample size was increased from 0.5 μL to 2.5 μL for HPLC, excitation wavelength was reduced from 340 nm to 235 nm, and fluorimeter gain was increased from 10 to 13.
This example describes the cloning of the nucleotide sequence for AsnS1 (SEQ ID NO: 1), AsnS2 (SEQ ID NO: 3), AsnS3 (SEQ ID NO: 5) and AsnS4 (SEQ ID NO: 50) into E. coli expression vectors, as well as the expression, purification and kinetics of the recombinant forms of the four AsnS isoforms.
These vectors are expected to produce recombinant proteins with C-terminal histidine tags.
The E. coli expression vectors described in the previous paragraph were used to transform Rosetta DE5™ E. coli cells (Novagen). […]

B1: Zea mays asparagine synthetase Zm AsnS4 (SEQ ID NO: 51, encoded by SEQ ID NO: 50) (Zea mays) (protein)
chain: MCGILAVLGCSDCSQARRARILACSRRLKHRGPDWSGLYQHEGNFLAQQRLAIVSPLSGDQPLFNEDRTVVVVANGEIYNHKNVRKQFTGAHSFSTGSDCEVIIPLYEKYGENFVDMLDGVFAFVLYDTRDRTYVAARDAIGVNPLYIGWGSDGSVWMSSEMKALNEDCVRFEIFPPGHLYSSAGGGFRRWYTPHWFQEQVPRTPYQSLVLREAFEKAVIKRLMTDVPFGVLLSGGLDSSLVASVTKRHLVETDAAEKFGTELHSFVVGLEGSPDLKAAREVADYLGTTHHEFHFTVQDGIDAIEEVIYHDETYDVTTIRASTPMFLMARKIKSLGVKMVLSGEGSDELLGGYLYFHFAPNREELHRETCRKVKALHQYDCLRANKATSAWGLEVRVPFLDKEFVDVAMGMDPEWKMYDKNLGRIEKWVLRKAFDDEEHPYLPEHILYRQKEQFSDGVGYNWIDGLKSFTEQQVTDEMMNSAAQMFPYNTPVNKEAYYYRMIFERLFPQDSARETVPWGPSIACSTPAAIEWVEQWKASNDPSGRFISSHDSAATDRTGDKLAVANGGGHGAANGTVNGNDVAVAIAV
notes: 588 aa
B1 was tested, and the Km was 930 µM.
